Results on 30 sequences are retold here after the nanobody polyreactivity screen of Harvey et al. (2022).

The series can be described thus: yeast display, Sf9 membrane polyspecificity reagent, FACS + sequencing; frameworks hold sequencing errors. The essentials: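 Galactose-induced (36–48 hours) yeast carrying a synthetic nanobody display library were exposed to 10% biotinylated, detergent-solubilized Sf9 membrane reagent at 4 °C for 1 hour. FACS followed streptavidin microbead enrichment, using low and high (top ~1%) gates for expression (anti-HA) and reagent binding (streptavidin). Colony PCR, MiSeq 2 × 250 sequencing and CDR-length filtering followed. Labels for polyreactivity reflect the gate of origin.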
In the case of “QVQLVESGGGLVQAGGSLRLSCAASGYTFLVNAMGWYRQAPGKERELVAAISSGGSTYYADSVKGRFTISRDNAKNTVYLQMNSLKPEDTAVYYCAAPTDFLFWEFDYWGQGTQVTVSS”, the “polyreactivity (PSR sort gate)” value is reported as “low polyreactivity”. Regarding “QVQLVESGGGLVQAGGSLRLSCAASGYTFNRNAMGWYIQAPGKERELVASITRRGGSTYYADSVKGRFTISRDNAKNTVYLQMNSLKPEDTAVYYCAVESIRTGDYWGQGTQVTVSS”, the “polyreactivity (PSR sort gate)” value is given as “high polyreactivity”.

Consider “QVQLVESGGGLVQAGGSLRLSCAASGYTFNRYAMGWYRQAPGKERELVAAITRGGTTYYADSVKGRFTISRDNAKNTVYLQMNSLKPEDTAVYYCNKFQPSGQYFKMGYWGQGTQVTVSS”, for which the “polyreactivity (PSR sort gate)” value is “high polyreactivity”. On to “QVQLVESGGGLVQAGGSLRLSCAASGYTFPIYAMGWYRQAPGKEREVVATISSGGRTNYADSVKGRFTISRDNAKNTVYLQMNSLKPEDTAVYYCNARRLGWHALYLYDYWGQGTQVTVSS”, for which the “polyreactivity (PSR sort gate)” value is “high polyreactivity”. Turning to “QVQLVESGGGLVQAGGSLRLSCAASGYTFPKYAMGWYRQAPGKERELVAAITKRGGRTYYADSVKGRFTISRDNAKNTVYLQMNSLKPEDTAVYYCAVDLDGPEYSQVHYDYWGQGTQVTVSS”, the “polyreactivity (PSR sort gate)” value is on record as “high polyreactivity”. On to “QVQLVESGGGLVQAGGSLRLSCAASGYTFPLYAMGLYRQAPGKERELVADINIGGASTYYADSVKGRFTISRDNAKNTVYLQMNSLKPEDTAVYYCAKEYYDGYFPTFDYDYWGQGTQVTVSS”, for which the “polyreactivity (PSR sort gate)” value is given as “low polyreactivity”. “QVQLVESGGGLVQAGGSLRLSCAASGYTFPLYAMGWYIQAPGKETELVADINIGGASTYYADSVKGRFTISRDNAKNTVYLQMNSLKPEDTAVYYCAKEYYDGYFPTLDYDYWGQGTQVTVSS”: the “polyreactivity (PSR sort gate)” value is “low polyreactivity”. As for “QVQLVESGGGLVQAGGSLRLSCAASGYTFPPNAMGWYSQAPGKERELVAAISWRGDSTYYADSVKGRFTISRDNAKNTVYLQMISLKPEDTAVYYCAAGYRRGPDIYYYWGQVTQVTVSS”, the entry is “low polyreactivity”; as for “QVQLVESGGGLVQAGGSLRLSCAASGYTFPRNAMGWYRQEPGKERELVAAISASGGRTSYADSVKVRFTISRDNAKNTVYLQMNSLKPEDTAVYYCAAPFLRRIGYPRSYDYWGQGTQVTVSS”, “high polyreactivity”. As for “QVQLVESGGGLVQAGGSLRLSCAASGYTFPYYAMGWYIQAPGKERELVAAISRSGGTTYYADSVKGRFTISRDNAKNTVYLQLNSLKPEDTAVYYCAALYGSRSTYHMDDYWGQGTQVTVSS”, the entry is “high polyreactivity”; as for “QVQLVESGGGLVQAGGSLRLSCAASGYTFQKYAMGWYRQAPGKERESVAAITRSGTRTYYADSVKGRFTISRDNAKNTVYLQMNSLKPEDTAVYYCAAETYYSIYDYWGQGTQVTVSS”, “high polyreactivity”; as for “QVQLVESGGGLVQAGGSLRLSCAASGYTFQYYTMGWYRQAPGKERELVAAISSSGGRTYYADSVKGRFTISRDNAKNTVYLQMNSLKPEDTAVYYCAATYSYRSDYYSWGQGTQVTVSS”, “high polyreactivity”. Turning to “QVQLVESGGGLVQAGGSLRLSCAASGYTFRANGMGWYRQAPGKERELVAAITQSVDNTYYADSVKGRFTISRDNAKNTVYLQVNSLKPEDTAVYYCATEYGQTGYPQMGYWGQGTQVTVSS”, the “polyreactivity (PSR sort gate)” value is “low polyreactivity”.

On to “QVQLVESGGGLVQAGGSLRLSCAASGYTFRGYAMGWYRQAPGKEREFVAAINWSDGSTYYADSVKGRFTISRDNAKNTVYLQMNSLKPEDTAVYYCNADQYYRVPDNYWGQGTLVTVSS”, for which the “polyreactivity (PSR sort gate)” value was “low polyreactivity”.

On to “QVQLVESGGGLVQAGGSLRLSCAASGYTFRGYAMGWYRQAPGKEREFVAAINWSDGSTYYADSVKGRFTISRDNAKNTVYLQMNSLKPEDTAVYYCNADQYYRVPDNYWGQGTQVTVSS”, for which the “polyreactivity (PSR sort gate)” value is “low polyreactivity”. As to “QVQLVESGGGLVQAGGSLRLSCAASGYTFRNNAMGWYRQAPGKEREFVAAISRSGARTYYADSVKGRFTISRDNAKNTVYLQMNSLKPEDTAVYYCAARESFEYDSWGQGTQVTVSS”, the “polyreactivity (PSR sort gate)” value is recorded as “high polyreactivity”. Take “QVQLVESGGGLVQAGGSLRLSCAASGYTFRQYTIGWYRPAPGKERELVDAISRSGGSTYYADSVKGRFTISRDNAKNTVFLQMNSLKPEDTAVYYCNAEGYGRTDGFGYDYWGQGTQVTVSS”: the “polyreactivity (PSR sort gate)” value was “high polyreactivity”. With “QVQLVESGGGLVQAGGSLRLSCAASGYTFRYYAMGWYRQAPGKERELVAAISRSGGSTYYADSVKGRFTISRDNAKNTVSLQMNSLKPEDTAVYYCAVALARPYEDYDYWGQGTQVTVSS”, the “polyreactivity (PSR sort gate)” value is given as “high polyreactivity”. For the sequence “QVQLVESGGGLVQAGGSLRLSCAASGYTFRYYVMGWYRQAPGKERELDAAISQRGGSTYYADSVKGRFTISRDNAKNTVYLQMNSLKPEDTAVYYCAASYSTYASRGYGYWGQGTQVTVSS”, the “polyreactivity (PSR sort gate)” value is recorded as “high polyreactivity”. As for “QVQLVESGGGLVQAGGSLRLSCAASGYTFSDNAIGWYRQAPGKERELVAAITSGVSTYYADSVKGRFTISRDNAKNTVYLQMNSLKPEDTAVYYCAKDVAVYADLYQGAPYGYWGQGTQVTVSS”, the “polyreactivity (PSR sort gate)” value is “low polyreactivity”. In the case of “QVQLVESGGGLVQAGGSLRLSCAASGYTFSHYDMGWYRQAPGKERELVAGITWSGGSTYYADSVKGRFTISRDNAKNTVYLQMNSLIPEDTSVYYCAAKYYWYYSYSGIPLFDYWGQGTQVTVSS”, the “polyreactivity (PSR sort gate)” value is listed as “low polyreactivity”.

Take “QVQLVESGGGLVQAGGSLRLSCAASGYTFSNNAMGWYRQAPGKERELVAAISRSTGSTYYADSVKGRFTISRDYAKNTVYLQMNSLKPEDTAVYYCAVYRHGYGYNYWGQGTQVTVSS”: the “polyreactivity (PSR sort gate)” value is on record as “high polyreactivity”.

For the sequence “QVQLVESGGGLVQAGGSLRLSCAASGYTFSQNAMGWYRQAPGKEREVVAGITTRGTTTYYADSVKGRFTISRDNAKNTVYLQMNSLKPEDTPVYYCAADNSYTDNYWGQGTQVTVSS”, the “polyreactivity (PSR sort gate)” value is recorded as “low polyreactivity”. On to “QVQLVESGGGLVQAGGSLRLSCAASGYTFSYYAMGWYRQAPGKERELVAAITSTGSTYYADSVKGRFTISRDNAKNTDYFQMNSLKPEDTEVYYCNVDVATVGPVDYWGQGTQVTVSS”, for which the “polyreactivity (PSR sort gate)” value is on record as “low polyreactivity”. On to “QVQLVESGGGLVQAGGSLRLSCAASGYTFTGNAMGWYRQAPGKERELVARITSVGRTYYADSVKGRFTISRDNAKNTVYLQMNSLKPEDTAVYYCAAQPYRYRYWPRVGGYDYWGQGTQVTVTS”, for which the “polyreactivity (PSR sort gate)” value is reported as “high polyreactivity”. As for “QVQLVESGGGLVQAGGSLRLSCAASGYTFTINAMGWYRQAPGKERELVAAISWNGGRTYYADAVKGRFTISRDNAKNTVYLQMNSLKPEDTAVCYCNADTYAAGDYWGQGTQVTVSS”, the entry is “high polyreactivity”. As for “QVQLVESGGGLVQAGGSLRLSCAASGYTFTTYAMGWYRQAPGKEREFVASIRWRGGNTYYADSVKGRFTISRDNAKNTVYLQMNSQKREDTAVYYCARRVDYISSKYGYWGQGTQVTVSS”, the “polyreactivity (PSR sort gate)” value is “high polyreactivity”. On to “QVQLVESGGGLVQAGGSLRLSCAASGYTFVDNAMGWYRQAPGKERELVAAINWDGASTYADSVKGRFTISRDNAKNTVYLQMNSLKPEDTAVYYCTASGKDIFNYVYQGYDYWGQGTQVTVSS”, for which the “polyreactivity (PSR sort gate)” value is “low polyreactivity”. On to “QVQLVESGGGLVQAGGSLRLSCAASGYTFVIYAMGSYRQAPGKERELVAAITTIGGRTYYADSVKGRFTISRDNAKNTVYLQMNSLKPEDTAVYYCAADIRSNRLYDGGYWGLGTQVTVSS”, for which the “polyreactivity (PSR sort gate)” value is listed as “low polyreactivity”. As for “QVQLVESGGGLVQAGGSLRLSCAASGYTFVIYAMGWYRQAPGKERELVAAITTIGGRTYYADSVKGRFTISRDNAKNTVYLQMNSLKPEDTAVYYCAADIRSNRLYDGGYWGQGTQVTVSS”, the entry is “low polyreactivity”.
